Measurements: PMC12366639

Substrate: CC=O
Experiment: purified protein
Assay type: biochemical, Homo sapiens
Conditions: NAD+

B1: aldehyde dehydrogenase 2 (ALDH2) (Homo sapiens) (protein)
chain: SAAATQAVPAPNQQPEVFCNQIFINNEWHDAVSRKTFPTVNPSTGEVICQVAEGDKEDVDKAVKAARAAFQLGSPWRRMDASHRGRLLNRLADLIERDRTYLAALETLDNGKPYVISYLVDLDMVLKCLRYYAGWADKYHGKTIPIDGDFFSYTRHEPVGVCGQIIPWNFPLLMQAWKLGPALATGNVVVMKVAEQTPLTALYVANLIKEAGFPPGVVNIVPGFGPTAGAAIASHEDVDKVAFTGSTEIGRVIQVAAGSSNLKRVTLELGGKSPNIIMSDADMDWAVEQAHFALFFNQGQCCCAGSRTFVQEDIYDEFVERSVARAKSRVVGNPFDSKTEQGPQVDETQFKKILGYINTGKQEGAKLLCGGGIAADRGYFIQPTVFGDVQDGMTIAKEEIFGPVMQILKFKTIEEVVGRANNSTYGLAAAVFTKDLDKANYLSQALQAGTVWVNCYDVFGAQSPFGGYKMSGSGRELGEYGLQAYTEVKTVTVKVPQKNS
In the case of B1, the Km is reported as 1.8 µM.
